Non-standard residues stand in square brackets, D forms with d. No end group written: not given here. pGlu = O=C1CC[C@@H](C(=O)O)N1

The values below come from patent publication US20250130242A1.

In assay [1] the target is S24201 antibody. Nature of the assay: competitive ELISA; coated C1A2-01-BSA (printed C1A1-02-BSA), S24201 125 ng/mL, competitive peptide 40 ng/ml.
Assay [2] deals with S24201 antibody. Nature of the assay: competitive ELISA; coated C1A2-01-BSA (printed C1A1-02-BSA), S24201 125 ng/mL, competitive peptide 8 ng/ml.
Assay [3] addresses S24201 antibody. Briefly: competitive ELISA; coated C1A2-01-BSA (printed C1A1-02-BSA), S24201 125 ng/mL, competitive peptide 5000 ng/ml.
In assay [4] the target is S24201 antibody. Nature of the assay: competitive ELISA; coated C1A2-01-BSA (printed C1A1-02-BSA), S24201 125 ng/mL, competitive peptide 0.32 ng/ml.
For assay [5], the target named is S24201 antibody. Briefly: competitive ELISA; coated C1A2-01-BSA (printed C1A1-02-BSA), S24201 125 ng/mL, competitive peptide 200 ng/ml.
For assay [6], the target named is S24201 antibody. Nature of the assay: competitive ELISA; coated C1A2-01-BSA (printed C1A1-02-BSA), S24201 125 ng/mL, competitive peptide 1.6 ng/ml.
Assay [7] addresses S24201 antibody. Nature of the assay: competitive ELISA; coated C1A2-01-BSA (printed C1A1-02-BSA), S24201 125 ng/mL, competitive peptide 0 ng/ml (baseline without competitor).
In assay [8] the target is S24201 antibody. Nature of the assay: competitive ELISA; coated C1A2-01-BSA (printed C1A1-02-BSA), S24201 125 ng/mL, competitive peptide 1000 ng/ml.

As for [pGlu]SLQEETVRK [peptide C1A2-02 (J…)], the Absorbance at wavelength 492 nm (absorbance at 492 nm) in assay [1] came to 0.541; in assay [2], 0.668; in assay [3], 0.074; in assay [4], 0.712; in assay [5], 0.306; in assay [6], 0.735. Besides, the Absorbance at wavelength 492 nm (absorbance at 492 nm) in assay [7] was 0.752; in assay [8] it was 0.142.

For the molecule QSLQEETVRK [peptide C1A2-03 (…)], the Absorbance at wavelength 492 nm (absorbance at 492 nm) in assay [1] stood at 0.693; in assay [2], 0.681; in assay [3], 0.313; in assay [4], 0.706; in assay [5], 0.652; in assay [6], 0.7. For the same molecule, the Absorbance at wavelength 492 nm (absorbance at 492 nm) worked out at 0.702 in assay [7] and 0.521 in assay [8].
